Results on three molecules are retold here after PMC7871196 (Cell reports, 2021).

Where no end group is shown, it is not given here. The star is where a group is joined. Biotin = O=C1N[C@H]2[C@H](CS[C@H]2CCCCC(=O)*)N1

The target in assay [1] is 6xHis-tagged WDR5 (24-334) (human, UniProt P61964 24-334). Nature of the assay: AlphaScreen or HTRF.
In assay [2] the target is recombinant 6xHis-SUMO-WDR5 (22-334) (human, UniProt P61964 22-334). As to the kind of experiment: pull-down.

As to Ac-ARTTSQLYDA-NH2 [Peptide acetyl PDPK1 WT 10-mer: Acetyl - ARTTSQLYDA-amidated], in assay [1], the binding result was “binds”.
As for H-ARTTSQLYDAVPIQSSGGYK(Biotin) [Peptide PDPK1 WT: NH2-ARTTSQLYDAVPIQSS-GGY-K(biotin)], the binding result in assay [2] is on record as “binds”.
As to Ac-ARTTSQLYDAVPIQS-NH2 [Peptide acetyl PDPK1 WT 15-mer: Acetyl-ARTTSQLYDAVPIQS-amidated], the binding result in assay [1] is given as “binds”.
